The values that follow come from publication PMC3157250 (2011).

Broadly, the Kd is the equilibrium constant for the complex coming apart.

Series [1] has as its target KSHV protease (Kaposi's sarcoma-associated herpesvirus) (UniProt Q2HRB6). The note with it: cited from earlier work.
Series [2] deals with the molecule itself. Briefly: fluorescence-based substrate cleavage kinetics assay.

For the molecule KSHV protease (from UniProt Q2HRB6), the Kd in series [1] was 1700 nM.

B1: HCMV protease (HCMV Pr) (protein)
chain: MTMDEQQSQAVAPVYVGGFLARYDQSPDEAELLLPRDVVEHWLHAQGQGQPSLSVALPLNINHDDTAVVGHVAAMQSVRDGLFCLGCVTSPRFLEIVRRASEKSELVSRGPVSPLQPDKVVEFLSGSYAGLSLSSRRCDDVEAATSLSGSETTPFKHVALCSVGRRRGTLAVYGRDPEWVTQRFPDLTAADRDGLRAQWQRCGSTAVDASGDPFRSDSYGLLGNSVDALYIRERLPKLRYDKQLVGVTERESYVKA
Consider B1, for which, in series [2], binding was put at a Kd of 1300 nM.
